According to patent US20240067738A1:
Values joined by “and” are separate entries in the source; they are usually repeats but may differ in a detail not shown here. Equal entries are not always repeated.

Each binder was assayed against canine FcRn with a poly-His tag and canine B2M heterodimer complex (canine) (assay: SPR (Biacore T200), biotinylated canine FcRn/B2M complex on chip, Fc as analyte, pH 6.0).
Sequence of canine FcRn with a poly-His tag and canine B2M heterodimer complex (canine) (chain, as listed by the source limits assumed, chain 1 of 2): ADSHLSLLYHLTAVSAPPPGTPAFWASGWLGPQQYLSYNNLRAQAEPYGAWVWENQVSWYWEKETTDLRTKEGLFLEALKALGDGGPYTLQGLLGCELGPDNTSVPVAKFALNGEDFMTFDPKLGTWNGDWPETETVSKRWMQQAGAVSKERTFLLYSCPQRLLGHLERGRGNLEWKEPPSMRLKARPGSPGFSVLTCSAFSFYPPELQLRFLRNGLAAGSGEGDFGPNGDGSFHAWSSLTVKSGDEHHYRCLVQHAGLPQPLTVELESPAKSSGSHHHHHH
Sequence of canine FcRn with a poly-His tag and canine B2M heterodimer complex (canine) (b2m, as listed by the source limits assumed, chain 2 of 2): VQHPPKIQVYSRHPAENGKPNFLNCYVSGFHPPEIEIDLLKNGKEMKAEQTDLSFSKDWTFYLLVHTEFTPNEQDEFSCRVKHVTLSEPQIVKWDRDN

| Binder | koff |
| --- | --- |
| variant canine IgG-B Fc polypeptide L(23)F (SASA tag) (protein, part only; not given: SASA tag, not shown: another chain or arm of the molecule; small tags and cut ends) Fc: PAPEMLGGPSVFIFPPKPKDTLFIARTPEVTCVVVDLDPEDPEVQISWFVDGKQMQTAKTQPREEQFNGTYRVVSVLPIGHQDWLKGKQFTCKVNNKALPSPIERTISKARGQAHQPSVYVLPPSREELSKNTVSLTCLIKDFFPPDIDVEWQSNGQQEPESKYRTTPPQLDEDGSYFLYSKLSVDKSRWQRGDTFICAVMHEALHNHYTQESLSHSPGK | 0.0631 s⁻¹ and 0.0847 s⁻¹ |
| variant canine IgG-B Fc polypeptide L(23)S (SASA tag) (protein, part only; not given: SASA tag, not shown: another chain or arm of the molecule; small tags and cut ends) Fc: PAPEMLGGPSVFIFPPKPKDTLSIARTPEVTCVVVDLDPEDPEVQISWFVDGKQMQTAKTQPREEQFNGTYRVVSVLPIGHQDWLKGKQFTCKVNNKALPSPIERTISKARGQAHQPSVYVLPPSREELSKNTVSLTCLIKDFFPPDIDVEWQSNGQQEPESKYRTTPPQLDEDGSYFLYSKLSVDKSRWQRGDTFICAVMHEALHNHYTQESLSHSPGK | 0.241 s⁻¹ |
| variant canine IgG-B Fc polypeptide L(23)M (SASA tag) (protein, part only; not given: SASA tag, not shown: another chain or arm of the molecule; small tags and cut ends) Fc: PAPEMLGGPSVFIFPPKPKDTLMIARTPEVTCVVVDLDPEDPEVQISWFVDGKQMQTAKTQPREEQFNGTYRVVSVLPIGHQDWLKGKQFTCKVNNKALPSPIERTISKARGQAHQPSVYVLPPSREELSKNTVSLTCLIKDFFPPDIDVEWQSNGQQEPESKYRTTPPQLDEDGSYFLYSKLSVDKSRWQRGDTFICAVMHEALHNHYTQESLSHSPGK | 0.126 s⁻¹ |

Results, then the binder that gave them:

| koff | Binder |
| --- | --- |
| 0.122 s⁻¹ | wild-type canine IgG-B Fc polypeptide (SASA tag) (protein, part only; not given: SASA tag, not shown: another chain or arm of the molecule; small tags and cut ends) Fc: PAPEMLGGPSVFIFPPKPKDTLLIARTPEVTCVVVDLDPEDPEVQISWFVDGKQMQTAKTQPREEQFNGTYRVVSVLPIGHQDWLKGKQFTCKVNNKALPSPIERTISKARGQAHQPSVYVLPPSREELSKNTVSLTCLIKDFFPPDIDVEWQSNGQQEPESKYRTTPPQLDEDGSYFLYSKLSVDKSRWQRGDTFICAVMHEALHNHYTQESLSHSPGK |
| 0.0138 s⁻¹ | variant canine IgG-B Fc polypeptide L(23)Y (SASA tag) (protein, part only; not given: SASA tag, not shown: another chain or arm of the molecule; small tags and cut ends) Fc: PAPEMLGGPSVFIFPPKPKDTLYIARTPEVTCVVVDLDPEDPEVQISWFVDGKQMQTAKTQPREEQFNGTYRVVSVLPIGHQDWLKGKQFTCKVNNKALPSPIERTISKARGQAHQPSVYVLPPSREELSKNTVSLTCLIKDFFPPDIDVEWQSNGQQEPESKYRTTPPQLDEDGSYFLYSKLSVDKSRWQRGDTFICAVMHEALHNHYTQESLSHSPGK |
